Measured values published in the Immune Epitope Database (IEDB).

How the values were obtained:
Settings in all cases: source organism: Homo sapiens
HLA-A*11:01 = assay: IEDB peptide-MHC binding, purified MHC/competitive/radioactivity; ≥ and ≤ were set here for values at or beyond the usual limits of such assays
HLA-A*03:01 = assay: as above
HLA-A*33:01 = assay: IEDB peptide-MHC binding, purified MHC/competitive/radioactivity; filed as Kd, often an IC50 or EC50 that approximates it; ≥ and ≤ were set here for values at or beyond the usual limits of such assays
HLA-A*31:01 = assay: as above
HLA-A*68:01 = assay: as above

| Sequence | IC50 (HLA-A*11:01) [nM] | IC50 (HLA-A*03:01) [nM] | Kd (HLA-A*33:01) [nM] | Kd (HLA-A*31:01) [nM] | Kd (HLA-A*68:01) [nM] |
| --- | --- | --- | --- | --- | --- |
| ALNFPGSQK | 4.6 | 8.5 | ≥ 10000 | ≥ 10000 | ≥ 10000 |
| LIYRRRLMK | – | 5.5 | – | – | – |
| IALNFPGSQK | 316 | 36.7 | ≥ 10000 | ≥ 10000 | 4700 |
| SLIYRRRLMK | – | 39.3 | – | – | – |
| QLVLHQILK | – | 52.4 | – | – | – |
